By Kd is commonly meant the equilibrium constant for the complex coming apart. A low value points to higher affinity.

The target in this test is HLA-A*33:03. As to the kind of experiment: IEDB peptide-MHC binding, purified MHC/competitive/fluorescence; filed as Kd, often an IC50 or EC50 that approximates it; ≥ and ≤ were set here for values at or beyond the usual limits of such assays. To be noted: source organism: Homo sapiens.
On to DAQRLHYYR, for which the equilibrium dissociation constant (Kd) is 1.37 nM.

Consider DIYNHRFHR, for which the equilibrium dissociation constant (Kd) was 2.4 nM.

As for DTYLHRVAR, the Kd was 2.19 nM.

As for DVFPGPSFR, the Kd is 2.18 nM.

EFFIPRVGR showed a Kd of 1.47 nM.

Sequence EFFSINAQR registered a Kd of 0.28 nM.

On to EFQDFTVPR, for which the Kd was 1.78 nM.

The sequence EFVDLYVPR returned a Kd of 5.11 nM.

Regarding ELFDFLHAR, the Kd was 1.68 nM.

In the case of ETFPQRHMR, the Kd is 3.14 nM.

Turning to ETHFPFAIR, the Kd worked out at 2.11 nM.

For the sequence ETMPSPYGR, the Kd turned out to be 3.1 nM.

Regarding ETVERIFRR, the Kd came to 1.77 nM.

ETYKYLYGR came in with a dissociation constant Kd of 1.79 nM.

Sequence ETYLHRIGR yielded a Kd of 1.69 nM.

As for EVASVWVER, the Kd worked out at 11.5 nM.

With EVFEYIIFR, the Kd stood at 4.69 nM.

As to EVINDYHFR, the Kd came to 5.33 nM.

In turn, EVKESPFFR returned a Kd of 3.63 nM.

In turn, EVYDIAFSR showed a dissociation constant Kd of 1.29 nM.

Sequence FTWNINHAR came in with a Kd of 3.22 nM.

The sequence FVFDRPVHR came in with a Kd of 0.95 nM.

As to MLYGLIHAR, the dissociation constant (Kd) turned out to be 3.45 nM.

The sequence MTILQTYFR had a dissociation constant Kd of 3.19 nM.

In turn, NTLQLHRYR displayed a Kd of 3.4 nM.

As to NTNDFVTLR, the Kd came out at 4.87 nM.

As to QLYPRNFLR, the dissociation constant Kd amounted to 3.85 nM.

The sequence STARHLYLR displayed an equilibrium dissociation constant (Kd) of 0.92 nM.

For SYIDRLAPR, the equilibrium dissociation constant (Kd) is 1.43 nM.

Regarding TTTEHRFFR, the Kd was found to be 1.99 nM.

The sequence VVAAVRWRR yielded a Kd of 3.64 nM.

Consider YVFPKPFNR, for which the dissociation constant Kd stood at 1.43 nM.

YVQRFHYSR displayed a Kd of 1.37 nM.

The values above are taken from the Immune Epitope Database (IEDB).
